# Values quoted from earlier work, collected in patent US10373702B2, “Water-soluble trans-membrane proteins and methods for the preparation and use thereof” (Massachusetts Institute of Technology, priority 2014, dated 2019).
# B1: CXCR4: native CXC chemokine receptor type 4 isoform a, 356 amino acids (protein)
# chain: MSIPLPLLQIYTSDNYTEEMGSGDYDSMKEPCFREENANFNKIFLPTIYSIIFLTGIVGNGLVILVMGYQKKLRSMTDKYRLHLSVADLLFVITLPFWAVDAVANWYFGNFLCKAVHVIYTVNLYSSVLILAFISLDRYLAIVHATNSQRPRKLLAEKVVYVGVWIPALLLTIPDFIFANVSEADDRYICDRFYPNDLWVVVFQFQHIMVGLILPGIVILSCYCIIISKLSHSKGHQKRKALKTTVILILAFFACWLPYYIGISIDSFILLEIIKQGCEFENTVHKWISITEALAFFHCCLNPILYAFLGAKFKTSAQHALTSVSRGSSLKILSKGKRGGHSSVSTESESSSFHSS
# Target: SDF1a (Homo sapiens, UniProt P48061)
# Settings: native membrane-bound receptor with SDF1a
# Chain of SDF1a (P48061 22-89 limits assumed, species assumed): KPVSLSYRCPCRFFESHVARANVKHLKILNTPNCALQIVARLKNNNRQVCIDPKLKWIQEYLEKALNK
# Chain of SDF1a (P61073 whole entry partner, species assumed): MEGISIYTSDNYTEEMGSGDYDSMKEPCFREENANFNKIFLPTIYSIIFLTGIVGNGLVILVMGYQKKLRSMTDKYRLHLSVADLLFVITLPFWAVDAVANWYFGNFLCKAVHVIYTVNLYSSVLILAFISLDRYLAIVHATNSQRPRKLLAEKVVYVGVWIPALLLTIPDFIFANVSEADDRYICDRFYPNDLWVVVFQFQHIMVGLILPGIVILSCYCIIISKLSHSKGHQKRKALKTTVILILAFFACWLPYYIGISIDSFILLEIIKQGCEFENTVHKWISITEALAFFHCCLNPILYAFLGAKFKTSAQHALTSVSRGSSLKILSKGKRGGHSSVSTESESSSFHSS
molecule,measurement,value
B1,Kd,~100 nM
